In PMC11566999:

Target: T1, YTH-YPet (UniProt Q9Y5A9 380-579)
T1 sequence: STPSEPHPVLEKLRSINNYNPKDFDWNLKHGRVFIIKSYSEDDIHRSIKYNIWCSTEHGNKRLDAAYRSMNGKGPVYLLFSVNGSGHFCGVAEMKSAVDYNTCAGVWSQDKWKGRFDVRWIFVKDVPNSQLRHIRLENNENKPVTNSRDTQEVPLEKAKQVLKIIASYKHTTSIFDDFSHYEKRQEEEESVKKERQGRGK
Assay: EMSA

CCGGACUGUACAUGAGGAUCACCCAUGU (structured_RNA) [aRNA]: no binding.
